Results as given in patent US20070141716.

Key:
[1] = target: UBC13/Uev1 heterodimer, P61088
Sequence of UBC13/Uev1 heterodimer, P61088 (P61088 whole entry, chain 1 of 2): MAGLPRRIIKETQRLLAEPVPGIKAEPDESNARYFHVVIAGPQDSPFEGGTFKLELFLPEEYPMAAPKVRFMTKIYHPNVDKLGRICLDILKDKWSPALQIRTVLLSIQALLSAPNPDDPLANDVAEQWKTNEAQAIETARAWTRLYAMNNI
Sequence of UBC13/Uev1 heterodimer, P61088 (chain, as listed by the source, chain 2 of 2): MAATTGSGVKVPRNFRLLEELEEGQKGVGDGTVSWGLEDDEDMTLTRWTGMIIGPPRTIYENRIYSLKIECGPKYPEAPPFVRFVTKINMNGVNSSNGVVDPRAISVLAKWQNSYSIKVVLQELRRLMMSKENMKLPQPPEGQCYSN

Sequence of UbcH5c, P61077 (P61077 whole entry): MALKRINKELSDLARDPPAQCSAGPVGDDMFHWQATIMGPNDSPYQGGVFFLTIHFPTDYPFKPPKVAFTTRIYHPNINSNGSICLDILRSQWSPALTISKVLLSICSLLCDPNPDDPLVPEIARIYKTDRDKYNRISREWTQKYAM

B1: glutathione-S-transferase protein (GST)-PEM-3-like fusion protein (protein)
chain: MMAAMLSHAYGPGGCGAAAAALNGEQAALLRRKSVNTTECVPVPSSEHVAEIVGRQGCKIKALRAKTNTYIKTPVRGEEPIFVVTGRKEDVAMAKREILSAAEHFSMIRASRNKNGPALGGLSCSPNLPGQTTVQVRVPYRVVGLVVGPKGATIKRIQQQTHTYIVTPSRDKEPVFEVTGMPENVDRAREEIEMHIAMRTGNYIELNEENDFHYNGTDVSFEGGTLGSAWLSSNPVPPSRARMISNYRNDSSSSLGSGSTDSYFGSNRLADFSPTSPFSTGNFWFGDTLPSVGSEDLAVDSPAFDSLPTSAQTIWTPFEPVNPLSGFGSDPSGNMKTQRRGSQPSTPRLSPTFPESIEHPLARRVRSDPPSTGNHVGLPIYIPAFSNGTNSYSSSNGGSTSSSPPESRRKHDCVICFENEVIAALVPCGHNLFCMECANKICEKRTPSCPVCQTAVTQAIQIHS
- free polyubiquitin chain formation, immunoblot [1]: free polyubiquitin chains were only generated in the presence of UBC13/Uev1 heterodimer and a complete ubiquitin conjugation system
- in vitro self-ubiquitination, anti-ubiquitin immunoblot [1]: high molecular weight PEM-3-like-ubiquitin adducts were detected by anti-ubiquitin immunoblot analysis
- ubiquitin ligase activity by TR-FRET [1]: PEM-3-like acts as an E3 ligase with both UbcH5 and UBC13/Uev1
- ubiquitin ligase activity by TR-FRET (UbcH5c, P61077): PEM-3-like acts as an E3 ligase with both UbcH5 and UBC13/Uev1
